Paper PMC6355916, “MITF has a central role in regulating starvation-induced autophagy in melanoma”

Target: MITF (UniProt Q08874 287-403)
Assay: fluorescence anisotropy; FA: 0.5 nM dsDNA, 10 mM Tris/HCl pH 7.5, 300 mM NaCl, 0.01% Triton X-100, 0.1 mg/mL BSA, 25 °C, 5 min; fit one MITF dimer per dsDNA. Crystals: 0.9 M sodium malonate pH 5.5
Conditions: protein: recombinant; chain copies: 2; label: 3' fluorescein on strand 1; blunt

Sequence of MITF (Q08874 287-403): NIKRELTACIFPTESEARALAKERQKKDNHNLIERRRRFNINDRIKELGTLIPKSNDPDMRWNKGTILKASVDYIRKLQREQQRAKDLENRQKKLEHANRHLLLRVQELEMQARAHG

Row | Binder | Kd
1 | E-box (dsDNA) DNA 1: GAGACCACGTGTTGAC DNA 2: GTCAACACGTGGTCTC | 1.5 ± 0.3 nM
2 | M-box (dsDNA) DNA 1: GAGATCATGTGTTGAC DNA 2: GTCAACACATGATCTC | 2.6 ± 0.4 nM
3 | CLEAR-box (FA) (dsDNA) DNA 1: GAGATCACGTGATGAC DNA 2: GTCATCACGTGATCTC | 0.9 ± 0.3 nM
